Laboratory results from patent US20230167200A1 (published 2023).

Experiments:
[1] = target: T1, human PD-L2 expressed on CHO cells (CHO-hPD-L2 cells) (human, UniProt Q9BQ51 20-273); test: flow cytometry cell binding
T1 chain: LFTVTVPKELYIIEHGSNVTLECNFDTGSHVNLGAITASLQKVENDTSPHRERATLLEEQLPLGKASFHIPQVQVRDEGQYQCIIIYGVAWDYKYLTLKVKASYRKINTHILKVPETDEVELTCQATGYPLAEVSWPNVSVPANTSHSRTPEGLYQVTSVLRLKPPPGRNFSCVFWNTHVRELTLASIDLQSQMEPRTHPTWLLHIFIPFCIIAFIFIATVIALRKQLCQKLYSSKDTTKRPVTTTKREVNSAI

[2] = target: human PD-L1 expressed on CHO cells (CHO-hPD-L1 cells) (human, UniProt Q9NZQ7 19-290); test: flow cytometry cell binding
human PD-L1 expressed on CHO cells (CHO-hPD-L1 cells), sequence (Q9NZQ7 19-290): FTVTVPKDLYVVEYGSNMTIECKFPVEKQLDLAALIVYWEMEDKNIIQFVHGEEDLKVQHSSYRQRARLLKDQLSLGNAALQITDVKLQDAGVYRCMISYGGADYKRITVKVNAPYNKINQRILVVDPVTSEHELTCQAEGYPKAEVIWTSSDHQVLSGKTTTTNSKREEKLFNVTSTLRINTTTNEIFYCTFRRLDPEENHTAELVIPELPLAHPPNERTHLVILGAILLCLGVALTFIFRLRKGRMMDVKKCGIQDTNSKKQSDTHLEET

- EC50 [1]: 1.25 nM
- EC50 [2]: 3.79 nM
B1: anti-PD-L1/PD-L2 bispecific antibody Fc fusion protein Bi-203-204 (bispecific antibody, V domains shown)
V domain 1: QVQLVESGGGLVKPGGSLRLSCAASGHTFIIYAIGWFRQAPGKGLEFVATINWSGSMTNYADSVKGRFTISRDNAKNTVYLQMNSLKPDDTAVYYCAAYVGATISTAHSRYDYWGQGTLVTVSS
V domain 2: EVQLVESGGGLVQPGGSLRLSCAASGRTFSSMTIGWFRQAPGKGLEFVSGIGWTSGLTVYADSVKGRFTISRDNAKNSMYLQMNSLRAEDTAVYYCAADSMNRGQFDYWGQGTLVTVSS
